# Laboratory results from patent US20240209334A1, “SMALL-MOLECULE-ACTIVATED GLYCAN MODIFYING ENZYMES AND USES THEREOF” (President and Fellows of Harvard College, priority 2022, published 2024).
# B1: OGA-intein(C181): miniOGA with the 4-HT-responsive evolved intein inserted at C181 (protein)
# chain: MEQKLISEEDLAIAMVQKESQATLEERESELSSNPAASAGASLEPPAAPAPGEDNPAGAGGAAVAGAAGGARRFLCGVVEGFYGRPWVMEQRKELFRRLQKWELNTYLYAPKDDYKHRMFWREMYSVEEAEQLMTLISAAREYEIEFIYAISPGLDITFSNPKEVSTLKRKLDQVSQFGCRSFALLFDDIDHNMCLAEGTRIFDPVTGTTHRIEDVVDGRKPIHVVAAAKDGTLLARPVVSWFDQGTRDVIGLRIAGGAIVWATPDHKVLTEYGWRAAGELRKGDRVAGPGGSGNSLALSLTADQMVSALLDAEPPILYSEYDPTSPFSEASMMGLLTNLADRELVHMINWAKRVPGFVDLTLHDQAHLLERAWLEILMIGLVWRSMEHPGKLLFAPNLLLDRNQGKCVEGMVEIFDMLLATSSRFRMMNLQGEEFVCLKSIILLNSGVYTFLSSTLKSLEEKDHIHRALDKITDTLIHLMAKAGLTLQQQHQRLAQLLLILSHIRHMSNKGMEHLYSMKYKNVVPLYDLLLEMLDAHRLHAGGSGASRVQAFADALDDKFLHDMLAEGLRYSVIREVLPTRRARTFDLEVEELHTLVAEGVVVHNCAADKEVFSSFAHAQVSITNEIYQYLGEPETFLFCPTEYCGTFCYPNVSQSPYLRTVGEKLLPGIEVLWTGPKVVSKEIPVESIEEVSKIIKRAPVIWDNIHANDYDQKRLFLGPYKGRSTELIPRLKGVLTNPNCEFEANYVAIHTLATWYKSNMNGVRKDVVMTDSEDSTVSIQIKLENEGSDEDIETDVLYSPQMALKLALTEWLQEFGVPHQYSSRGSGSGSGSGSGSGSGEKPLYTAEPVTLEDLQLLADLFYLPYEHGPKGAQMLREFQWLRANSSVVSVNCKGKDSEKIEEWRSRAAKFEEMCGLVMGMFTRLSNCANRTILYDMYSYVWDIKSIMSMVKSFVQWLGCRSHSSAQFLIGDQEPWAFRGGLAGEFQRLLPIDGANDLFFQPP
# Experiments:
# [1] = test system: global O-GlcNAc level in MCF-7 cells; experiment: Immunoblot of global O-GlcNAc level and splicing in MCF-7 stable cell lines; type: cell-based, human; settings: MCF-7 cells stably expressing the variant
# From the text: In addition to serving as an activator for intein splicing, 4-HT is also known as the active metabolite of tamoxifen, an FDA-approved drug for treating breast cancer patients. Breast cancer cells also have elevated OGT expression (39) and decreased levels of OGA (40, 41), resulting in elevated O-GlcNAcylation in the proteome. OGT is usually required for tumor growth and metastasis (39), and low OGA expression is correlated with poor survival in breast cancer patients (FIG. 13). The ER positive breast cancer-derived MCF-7 cell line is sensitive to tamoxifen and 4-HT, resulting in suppression of cell proliferation, yet drug resistance occurs after long-term treatment (42). Previous studies also show evidence that upregulation of O-GlcNAcylation protects MCF-7 cells from tamoxifen-induced cell death (43). To determine if reduction of O-GlcNAc sensitized MCF-7 cells to 4-HT treatment, it was assessed whether 4-HT induced inhibition of breast cancer cell proliferation and OGA-intein activation worked synergistically to accelerate cell death (FIG. 5A). […] Next, these two cell lines were treated with 4-HT at increasing concentrations, and cell viability was measured after 48 hours. […] Given that 4-HT promoted MCF-7 cell death through apoptosis (43), the apoptosis of these cells under 4-HT treatment was further analyzed through flow cytometry analyses following Annexin V and DAPI staining. […]
# Nup62 [2] = experiment: Screen of intein insertion sites: OGA-intein variants co-expressed with Nup62 in HEK293T cells, immunoblot; type: cell-based
# From the text: OGA is a multi-domain hydrolase responsible for O-GlcNAc removal in mammalian cells. Based on the reported crystal structures of OGA (27-29), the essential domains of the long splice variant of OGA were identified, and it was confirmed that the HAT domain is not required for its deglycosidase activity in cells (13). In addition, replacement of the disordered region between the catalytic domain and the stalk domain with a glycine-serine flexible linker (GS-linker) maintained its activity in live cells in the absence of the C-terminal HAT domain (13, 28). This variant, termed miniOGA, was selected as the initial template for engineering with an intein due to its smaller size and simpler structure (FIG. 2A). […] Inserting this evolved 4-HT-responsive intein into a site that abolishes miniOGA activity until protein splicing has taken place could result in a conditionally active OGA for O-GlcNAc removal under the control of 4-HT. As intein splicing would leave behind a single cysteine residue (22), and to minimize alterations on OGA protein sequence, cysteine residues across different structural domains and the GS-linker at miniOGA were selected as the candidate insertion sites, thus generating OGA-intein fusion constructs for nine positions in total (C62, C166, C181, C220, C316, C596, C631, C663, and the GS-linker) (FIG. 2A). The nine OGA-intein variants were transiently expressed in HEK293T cells together with a model glycoprotein Nup62. Cells were treated with or without 1 μM 4-HT for 24 hours after transfection. OGA-intein variants were then detected by the Myc tag to verify the expected splicing, and their enzymatic activities were evaluated by detection of O-GlcNAc on the substrate Nup62 following immunoprecipitation.
# (§1) Immunoprecipitation and Immunoblot assays. […]
# (§2) For immunoblotting analysis, proteins were transferred to a nitrocellulose membrane using an iBlot system (Invitrogen). […] Immunoblot images were captured using Azure Imager C600 and analyzed with Fiji ImageJ for converting all IR fluorescence western blot images to grayscale images.
# Nup62 [3] = experiment: Spatial deglycosylation of cytoplasmic Nup62 by OGA-intein(C181) variants in HEK293T cells; type: cell-based; settings: cytoplasmic Nup62 co-expressed
# Description: (§3) Next, it was assessed whether these OGA-intein(C181) variants enable selective spatial deglycosylation in live cells. As O-GlcNAc affects the subcellular localization of many proteins (37), Nup62 was used as a model cytoplasmic substrate, which was previously primarily localized in the cytoplasm when transiently overexpressed in HEK293T cells independent of the O-GlcNAcylation state (13) (FIGS. 11A, 11B). Nup62 was co-expressed with three OGA-intein(C181) variants (C181-WT, C181-NLS, and C181-NES) in HEK293T cells, and Nup62 was enriched for O-GlcNAc measurement. […] Next, Nup62 was localized to the nucleus by attachment to an NLS tag (Nup62-NLS), and a similar coexpression and 4-HT-triggered activation was performed with OGA-intein(C181) variants. […] The fluorescent intensity of OGA-intein variants also show a strong correlation to the localization of Nup62, indicating the desired subcellular distribution (FIGS. 11A-C).
# as §1, §2
# Nup62-NLS = experiment: Spatial deglycosylation of nuclear Nup62-NLS by OGA-intein(C181) variants in HEK293T cells; type: cell-based; settings: nuclear Nup62-NLS co-expressed
# Description: as §3, §1, §2
molecule,measurement,setting,value
B1,global O-GlcNAc level after adding 4-HT,[1],decreased global O-GlcNAc level
same,intein splicing / spliced product on 4-HT treatment,"Nup62 [2]; 1 μM 4-HT for 24 hours, Myc tag detection",yielding the active spliced product
same,deglycosylation activity in the presence of 4-HT,"Nup62 [2]; co-expressed Nup62, 1 μM 4-HT for 24 hours",high deglycosylation activity
same,OGA activity (deglycosylation of Nup62) in the absence of 4-HT,"Nup62 [2]; co-expressed Nup62, without 4-HT",little activity
same,removal of O-GlcNAc from Nup62 after 4-HT-triggered activation,Nup62 [3],removed O-GlcNAc from Nup62
same,4-HT-induced deglycosylation of Nup62-NLS,Nup62-NLS,4-HT-induced deglycosylation
